Test results from patent US7067277B1, “Chimeric G proteins and uses thereof” (H. Lundbeck A/S, priority 1999, dated 2006).
Positions count from the first letter of the chain named.

T1: Rat Y1 (Rattus norvegicus, UniProt P21555)
T1 construct: linearized plasmids or PCR products containing the complete coding region of the genes; expressed in transfected cells; host or cells: Xenopus laevis oocytes (receptor cRNA injected)
T1 sequence (P21555 1-382): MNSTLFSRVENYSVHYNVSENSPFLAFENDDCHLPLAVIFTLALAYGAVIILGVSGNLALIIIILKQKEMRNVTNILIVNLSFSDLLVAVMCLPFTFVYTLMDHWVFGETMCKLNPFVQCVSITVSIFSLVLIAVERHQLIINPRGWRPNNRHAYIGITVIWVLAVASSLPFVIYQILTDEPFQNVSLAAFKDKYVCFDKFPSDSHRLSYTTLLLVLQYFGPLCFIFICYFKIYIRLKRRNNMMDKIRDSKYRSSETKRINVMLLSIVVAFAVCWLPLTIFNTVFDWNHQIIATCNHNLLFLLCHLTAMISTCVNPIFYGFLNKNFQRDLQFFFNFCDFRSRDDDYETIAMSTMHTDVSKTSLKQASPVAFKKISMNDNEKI

T2: Rat GALR1 (Rattus norvegicus, UniProt Q62805)
T2 construct: linearized plasmids or PCR products containing the complete coding region of the genes; expressed in transfected cells; host or cells: Xenopus laevis oocytes (receptor cRNA injected)
T2 sequence (Q62805 1-346): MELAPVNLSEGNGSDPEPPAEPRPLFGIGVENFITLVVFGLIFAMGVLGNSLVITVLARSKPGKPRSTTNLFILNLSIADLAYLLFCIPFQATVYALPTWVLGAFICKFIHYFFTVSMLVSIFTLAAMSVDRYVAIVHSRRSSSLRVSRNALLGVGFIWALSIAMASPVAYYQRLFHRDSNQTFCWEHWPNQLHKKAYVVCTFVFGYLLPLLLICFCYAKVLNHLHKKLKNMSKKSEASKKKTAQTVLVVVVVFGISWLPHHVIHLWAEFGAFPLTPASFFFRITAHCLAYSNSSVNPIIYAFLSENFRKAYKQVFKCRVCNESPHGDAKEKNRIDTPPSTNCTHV

T3: Rat Y5 (Rattus norvegicus, UniProt Q63634)
T3 construct: linearized plasmids or PCR products containing the complete coding region of the genes; expressed in transfected cells; host or cells: Xenopus laevis oocytes (receptor cRNA injected)
T3 sequence (Q63634 1-445): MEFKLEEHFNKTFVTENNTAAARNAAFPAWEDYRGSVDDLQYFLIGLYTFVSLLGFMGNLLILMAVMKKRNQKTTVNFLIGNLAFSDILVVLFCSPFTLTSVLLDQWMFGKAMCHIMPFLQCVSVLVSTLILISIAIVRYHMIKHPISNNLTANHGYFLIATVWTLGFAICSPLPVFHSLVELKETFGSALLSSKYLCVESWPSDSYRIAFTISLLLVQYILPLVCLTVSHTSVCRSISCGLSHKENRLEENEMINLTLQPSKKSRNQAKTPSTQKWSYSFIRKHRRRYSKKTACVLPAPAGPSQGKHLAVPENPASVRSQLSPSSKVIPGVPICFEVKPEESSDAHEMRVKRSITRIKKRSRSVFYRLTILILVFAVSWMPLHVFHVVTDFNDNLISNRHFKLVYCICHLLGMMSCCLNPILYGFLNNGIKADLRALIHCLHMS

B1: cGαq/z5: chimeric Gα subunit: C-terminal final 5 amino acids of C. elegans Gαq replaced with those of hGαz (SEQ ID NO: 1) (protein)
chain: MACCLSEEAREQKRINQEIEKQLQRDKRNARRELKLLLLGTGESGKSTFIKQMRIIHGQGYSEEDKRAHIRLVYQNVFMAIQSMIRAMDTLDIKFGNESEELQEKAAVVREVDFESVTSFEEPYVSYIKELWEDSGIQECYDRRREYQLTDSAKYYLSDLRRLAVPDYLPTEQDILRVRVPTTGIIEYPFDLEQIIFRMVDVGGQRSERRKWIHCFENVTSIMFLVALSEYDQVLVECDNENRMEESKALFRTIITYPWFTNSSVILFLNKKDLLEEKILYSHLADYFPEYDGPPRDPIAAREFILKMFVDLNPDADKIIYSHFTCATDTENIRFVFAAVKDTILQHNLKYIGLC
modifications: C. elegans
B2: cGαq/z9: C. elegans Gαq with Gαz portion of the C-terminal tail extended to 9 amino acids (SEQ ID NO: 2) (protein)
chain: B1 chain with H347N
modifications: C. elegans

Tests used:
Format in all cases: cell-based
[1] = molecular target: T4, h D1 (Homo sapiens, UniProt P21728); experiment: Calcium mobilization (FLIPR, Fluo-3) in transfected COS-7 cells
T4 construct: expressed in transfected cells; host or cells: COS-7
Experimental: COS-7 cells were cultured in 225 cm^2 flasks in Dulbecco's Modified Eagle Medium (DMEM) with supplements (10% bovine calf serum, 4 mM glutamine, 100 units/ml penicillin and 100 μg/ml streptomycin) at 37° C., 5% CO2. Stock plates of COS-7 cells were trypsinized and split 1:6 every 3–4 days.
For evaluating the function of a single chimeric G protein, the standard cDNA transfection ratio was 1:1 (10 μg GPCR cDNA and 10 μg chimeric G protein cDNA). For evaluating the function of a mixture of chimeric G proteins, the standard cDNA transfection ratio was 8:1:1 (16 μg GPCR cDNA, 2 μg Gαq/z cDNA, 2 μg Gαq/s cDNA).
Twenty four hours after transient transfection, COS-7 cells were seeded into 96-well black wall microtiter plates coated with poly-D-lysine for assay the following day. […] After excess dye was discarded, cells were washed in assay buffer and layered with a final volume equal to 100 μl/well. Basal fluorescence was monitored in a fluorometric imaging plate reader (FLIPR™, Molecular Devices) with an excitation wavelength of 488 nm and an emission range of 500 to 560 nm. Laser excitation energy was adjusted so that basal fluorescence readings were approximately 10,000 relative fluorescent units. Cells were stimulated with agonists diluted in assay buffer (50 μl), and relative fluorescent units were measured at defined intervals (exposure=0.4 sec) over a 3 min period at room temperature. Maximum change in fluorescence was calculated for each well. Concentration-response curves derived from the maximum change in fluorescence were analyzed by nonlinear regression (Hill equation).

[2] = test system: GALR1, Y1, NPFF2, and 5HT1D; experiment: Cl- current recording in Xenopus oocytes, C. elegans versus human chimera
Experimental: (§1) Oocytes were harvested from Xenopus laevis and injected with mRNA transcripts as previously described (Quick and Lester, 1994; Smith et al., 1997). Receptor and chimeric G protein α subunit RNA transcripts were synthesized using the T7 polymerase (“Message Machine,” Ambion) from linearized plasmids or PCR products containing the complete coding region of the genes. Oocytes were injected with 5–25 ng synthetic receptor RNA and incubated for 3–8 days at 17 degrees. Three to eight hours prior to recording, oocytes were injected with 500 pg chimeric Gα subunit mRNA. Dual electrode voltage clamp (Axon Instruments Inc.) was performed using 3 M KCl-filled glass microelectrodes having resistances of 1–2 MOhm. Unless otherwise specified, oocytes were voltage clamped at a holding potential of −80 mV. During recordings, oocytes were bathed in continuously flowing (1–3 ml/min) medium containing 96 mM NaCl, 2 mM KCl, 1.8 mM CaCl2, 1 mM MgCl2, and 5 mM HEPES, pH 7.5 (ND96). Drugs were applied by local perfusion from a 10 μl glass capillary tube fixed at a distance of 0.5 mm from the oocyte. Experiments were carried out at room temperature. All values are expressed as mean±standard error of the mean.

[3] = molecular target: T5, Human NPFF1 (Homo sapiens, UniProt Q9GZQ6); experiment: Cl- current recording in Xenopus oocytes expressing GPCR and chimeric G protein; settings: Xenopus oocytes expressing Human NPFF1 and chimera, 1 μM NPFF, mean ± s.e.m
T5 construct: linearized plasmids or PCR products containing the complete coding region of the genes; expressed in transfected cells; host or cells: Xenopus laevis oocytes (receptor cRNA injected)
Experimental: as §1

[4] = molecular target: T6, Rabbit 5HT1D (Oryctolagus cuniculus, UniProt P49145); experiment: as above; settings: Xenopus oocytes expressing Rabbit 5HT1D and chimera; mean ± s.e.m
T6 construct: linearized plasmids or PCR products containing the complete coding region of the genes; expressed in transfected cells; host or cells: Xenopus laevis oocytes (receptor cRNA injected)
Experimental: as §1

[5] = molecular target: T7, Human NPFF2 (Homo sapiens, UniProt Q9Y5X5); experiment: as above; settings: Xenopus oocytes expressing Human NPFF2 and chimera; mean ± s.e.m
T7 construct: linearized plasmids or PCR products containing the complete coding region of the genes; expressed in transfected cells; host or cells: Xenopus laevis oocytes (receptor cRNA injected)
Experimental: as §1

[6] = molecular target: T1, Rat Y1; experiment: as above; settings: Xenopus oocytes expressing Rat Y1 and chimera; mean ± s.e.m
Experimental: as §1

[7] = molecular target: T2, Rat GALR1; experiment: as above; settings: Xenopus oocytes expressing Rat GALR1 and chimera; mean ± s.e.m
Experimental: as §1

[8] = molecular target: T3, Rat Y5; experiment: as above; settings: Xenopus oocytes expressing Rat Y5 and chimera; mean ± s.e.m
Experimental: as §1

T4 sequence (P21728 whole entry): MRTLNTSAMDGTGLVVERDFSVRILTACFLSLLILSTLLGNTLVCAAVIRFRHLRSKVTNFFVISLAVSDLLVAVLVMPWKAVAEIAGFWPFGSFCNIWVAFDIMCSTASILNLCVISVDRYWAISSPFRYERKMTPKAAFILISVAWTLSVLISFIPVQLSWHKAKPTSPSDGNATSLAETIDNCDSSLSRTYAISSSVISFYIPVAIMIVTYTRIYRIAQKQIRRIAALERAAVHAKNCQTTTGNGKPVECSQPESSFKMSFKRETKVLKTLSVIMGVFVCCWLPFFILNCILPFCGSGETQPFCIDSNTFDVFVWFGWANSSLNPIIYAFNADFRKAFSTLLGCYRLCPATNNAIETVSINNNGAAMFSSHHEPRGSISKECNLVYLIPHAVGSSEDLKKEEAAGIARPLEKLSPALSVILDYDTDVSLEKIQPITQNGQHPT
T5 sequence (Q9GZQ6 whole entry): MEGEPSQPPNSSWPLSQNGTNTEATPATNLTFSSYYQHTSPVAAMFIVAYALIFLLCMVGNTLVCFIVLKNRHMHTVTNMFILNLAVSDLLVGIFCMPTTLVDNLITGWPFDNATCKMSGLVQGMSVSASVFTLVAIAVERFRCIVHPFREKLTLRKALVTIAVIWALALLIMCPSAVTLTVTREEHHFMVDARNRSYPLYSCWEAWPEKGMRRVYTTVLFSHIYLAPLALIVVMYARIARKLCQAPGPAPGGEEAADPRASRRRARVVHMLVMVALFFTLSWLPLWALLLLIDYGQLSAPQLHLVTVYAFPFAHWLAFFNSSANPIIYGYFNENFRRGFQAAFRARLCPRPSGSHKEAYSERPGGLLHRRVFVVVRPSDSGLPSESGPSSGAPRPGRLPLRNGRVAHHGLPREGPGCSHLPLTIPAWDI
T6 sequence (P49145 whole entry): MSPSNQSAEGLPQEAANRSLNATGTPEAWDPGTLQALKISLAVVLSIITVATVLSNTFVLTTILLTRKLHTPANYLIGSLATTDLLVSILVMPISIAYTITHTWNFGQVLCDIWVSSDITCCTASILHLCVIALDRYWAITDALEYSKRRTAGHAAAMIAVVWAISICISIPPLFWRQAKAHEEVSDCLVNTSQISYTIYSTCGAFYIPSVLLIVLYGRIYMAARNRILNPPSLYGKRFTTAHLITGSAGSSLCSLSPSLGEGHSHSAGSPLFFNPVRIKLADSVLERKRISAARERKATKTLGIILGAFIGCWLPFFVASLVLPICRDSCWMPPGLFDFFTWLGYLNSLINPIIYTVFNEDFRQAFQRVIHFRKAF
T7 sequence (Q9Y5X5 103-522): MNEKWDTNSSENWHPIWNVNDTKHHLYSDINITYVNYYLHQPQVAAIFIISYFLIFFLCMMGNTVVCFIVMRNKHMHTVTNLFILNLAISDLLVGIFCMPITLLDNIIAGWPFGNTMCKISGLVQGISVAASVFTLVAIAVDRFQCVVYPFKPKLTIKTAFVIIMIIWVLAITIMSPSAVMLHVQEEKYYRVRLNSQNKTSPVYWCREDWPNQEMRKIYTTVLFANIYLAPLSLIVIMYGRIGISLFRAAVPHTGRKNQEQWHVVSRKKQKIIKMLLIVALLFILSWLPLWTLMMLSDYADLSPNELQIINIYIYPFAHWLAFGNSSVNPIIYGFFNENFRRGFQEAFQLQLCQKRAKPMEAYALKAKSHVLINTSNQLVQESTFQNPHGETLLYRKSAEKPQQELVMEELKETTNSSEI

Molecule	maximal signal ([1]; human D1 receptor in COS-7, dopamine 0.3 nM to 100 μM concentration-response curve, example shown, FIG. 4B)	MAXIMAL SIGNAL (FLUORESCENCE UNITS) ([1]; human D1 receptors in COS-7, 10 μg chimera cDNA and 10 μg receptor cDNA, 100 μM dopamine, Table 9 parallel comparison, mean of two experiments)	increase in response over currents from oocytes expressing the human version of the chimera [2]	Response amplitudes (nA) in oocytes [3]	Response amplitudes (nA) in oocytes ([3]; listed as CGαq/z5)	Response amplitudes (nA) in oocytes [4]	Response amplitudes (nA) in oocytes [5]	Response amplitudes (nA) in oocytes [6]	Response amplitudes (nA) in oocytes [7]	MAXIMAL SIGNAL (FLUORESCENCE UNITS) ([1]; h D1 + chimera in COS-7, agonist DA, max 100 μM)	Response amplitudes (nA) in oocytes [8]
B1	14,723 fluorescence units	4832 fluorescence units	2–3 fold	1258±159 nA	1258 ± 159 nA	150 ± 105 nA	1121 ± 261 nA	1549 ± 168 nA	91 ± 38 nA	–	–
B2	–	–	–	1449 ± 398 nA	–	34 ± 12 nA	–	300 ± 177 nA	–	13099 fluorescence units	65 ± 34 nA
